Two molecules from patent US20250289873A1 (published 2025) can be followed below.

Read-outs that look alike come from different tables or passages of the source.

In assay [1] the target is hCFHR4. In words: SPR kinetics. On the technique in general: Surface plasmon resonance follows binding to a sensor surface in real time, without labels.
For assay [2], the target named is T1, hCFHR4b.
T1 chain: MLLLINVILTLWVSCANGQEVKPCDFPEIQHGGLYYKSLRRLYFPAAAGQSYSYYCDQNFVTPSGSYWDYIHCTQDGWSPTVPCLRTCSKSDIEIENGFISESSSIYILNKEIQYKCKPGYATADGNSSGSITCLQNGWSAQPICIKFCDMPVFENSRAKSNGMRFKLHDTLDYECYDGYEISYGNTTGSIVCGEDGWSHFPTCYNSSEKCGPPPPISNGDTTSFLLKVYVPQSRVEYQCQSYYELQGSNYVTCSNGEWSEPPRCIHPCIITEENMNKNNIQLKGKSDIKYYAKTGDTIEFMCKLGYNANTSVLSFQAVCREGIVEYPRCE
The assay can be described thus: SPR kinetics.

The target in assay [3] is T2, FHR-4 (coated on plate, C3 convertase assembly assay) (UniProt Q92496 20-331).
T2 chain: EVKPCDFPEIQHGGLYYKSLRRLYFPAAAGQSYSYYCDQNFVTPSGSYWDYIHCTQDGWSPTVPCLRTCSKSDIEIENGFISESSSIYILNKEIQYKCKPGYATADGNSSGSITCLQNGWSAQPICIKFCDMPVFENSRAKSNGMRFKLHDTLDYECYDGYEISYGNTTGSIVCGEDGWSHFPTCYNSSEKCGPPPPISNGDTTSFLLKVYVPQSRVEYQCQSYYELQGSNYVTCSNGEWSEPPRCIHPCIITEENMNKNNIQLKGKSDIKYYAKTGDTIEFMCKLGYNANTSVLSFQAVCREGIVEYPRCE
In words: C3 convertase assembly assay.

Assay [4] addresses T2, FHR-4 (coated on plate, C3 convertase …). The assay can be described thus: C3 convertase assembly assay.

B1: ATX-P-592 (antibody, V domains shown)
VH: QVQLQQSGPGLVKPSQTLSLTCAISGDSVSSNSAAWNWIRQSPSRGLEWLGRTYYRSKWYSDYPLSVKSRITINPDTSKNQFSLQLNSVTPEDTAVYYCARDSGIVETTPFDYWGQGTLVTVSS
VL: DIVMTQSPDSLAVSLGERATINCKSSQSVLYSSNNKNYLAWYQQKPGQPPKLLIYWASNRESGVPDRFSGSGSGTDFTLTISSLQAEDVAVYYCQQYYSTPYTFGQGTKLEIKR
With B1, the Kd in assay [1] and in assay [2] was 0.973 nM each time. Besides, the results for the IC50 in assay [3] and in assay [4] were 4.28 nM and 4.2 nM, respectively.

B2: ATX-P-569 (antibody, V domains shown)
VH: EVQLVESGGGLAQFGRSLRLSCAASGFTFDDYAMHWLRQAPGMGLEWVSGISWNSGSIGYADSVKGRFTIARDNAKNSVHLQMNSLRAEDTALYYCAKDIGNGYTKGDVFDIWGQGTMVTVSS
VL: DIQMTQSPSTLSASVGDSVTITCRASQNIITWLAWYQQKPGKAPNLLIYKASSLESGVPSRFSGSGSGTEFTLTISSLQPDDFATYYCQQYSSYSYTFGQGTKLEIKR
With B2, the Kd in assay [1] and in assay [2] was 1.44 nM in each case. In addition, the IC50 (in general, the concentration at which inhibition is half-maximal) worked out at 12.1 nM in assay [3] and 12 nM in assay [4].
